The values below come from paper PMC4909229, “Characterization of Staphylococcus aureus Primosomal DnaD Protein: Highly Conserved C-Terminal Region Is Crucial for ssDNA and PriA Helicase Binding but Not for DnaA Protein-Binding and Self-Tetrameri”.

For data set [1], the target named is Staphylococcus aureus PriA helicase (SaPriA) (Staphylococcus aureus subsp. aureus ED98).
A further data set addresses T1, SaDnaD1-195 (Staphylococcus aureus subsp. aureus ED98, UniProt Q9EUT0 1-195, del196-228).
T1 sequence: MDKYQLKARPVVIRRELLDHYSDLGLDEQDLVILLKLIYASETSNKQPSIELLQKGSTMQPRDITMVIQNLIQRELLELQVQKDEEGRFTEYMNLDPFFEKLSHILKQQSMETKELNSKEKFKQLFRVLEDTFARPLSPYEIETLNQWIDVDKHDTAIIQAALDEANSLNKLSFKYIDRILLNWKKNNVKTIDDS
The data set is described as follows: SEC; Superdex 200 HR 10/30, Buffer B (20 mM HEPES, 100 mM NaCl, pH 7.0), purified protein 2 mg/mL (methods; 4 mg/mL in the results for SaDnaD), calibrated with standard proteins; oligomer size from the estimated native mass.

Data set [2] concerns the target Staphylococcus aureus DnaA (SaDnaA) (Staphylococcus aureus subsp. aureus ED98). The data set is described as follows: SPR; SaPriA or SaDnaA immobilised on CM5 chips, Biacore T200, 293 K, 40 mM Tris, 200 mM NaCl, 0.05% Tween-20, pH 8.0; SaDnaD solutions 7.6-250 nM as analyte; 1:1 (Langmuir) model. (In general: In SPR one partner is held on a chip, and binding of the other changes the refractive index at the surface.)

For data set [3], the target named is Staphylococcus aureus PriA helicase (SaPriA) (Staphylococcus aureus subsp. aureus ED98). The source holds these as a separate data set.
The target is the same in data set [4]. The source holds these as a separate data set.
Another data set has as its target T2, SaDnaD1-200 (Staphylococcus aureus subsp. aureus ED98, UniProt Q9EUT0 1-200, del201-228).
T2 sequence: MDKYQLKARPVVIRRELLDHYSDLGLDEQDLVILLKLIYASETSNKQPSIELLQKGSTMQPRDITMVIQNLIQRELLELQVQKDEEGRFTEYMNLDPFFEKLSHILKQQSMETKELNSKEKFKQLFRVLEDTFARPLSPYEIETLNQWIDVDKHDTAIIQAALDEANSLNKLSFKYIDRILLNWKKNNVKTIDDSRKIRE
Description: SEC; Superdex 200 HR 10/30, Buffer B (20 mM HEPES, 100 mM NaCl, pH 7.0), purified protein 2 mg/mL (methods; 4 mg/mL in the results for SaDnaD), calibrated with standard proteins; oligomer size from the estimated native mass.

Data set [5] deals with Staphylococcus aureus PriA helicase (SaPriA) (Staphylococcus aureus subsp. aureus ED98). The data set is described as follows: SPR; SaPriA or SaDnaA immobilised on CM5 chips, Biacore T200, 293 K, 40 mM Tris, 200 mM NaCl, 0.05% Tween-20, pH 8.0; SaDnaD solutions 7.6-250 nM as analyte; 1:1 (Langmuir) model.
The target of the next data set is T3, SaDnaD1-204 (Staphylococcus aureus subsp. aureus ED98, UniProt Q9EUT0 1-204, del205-228).
T3 sequence: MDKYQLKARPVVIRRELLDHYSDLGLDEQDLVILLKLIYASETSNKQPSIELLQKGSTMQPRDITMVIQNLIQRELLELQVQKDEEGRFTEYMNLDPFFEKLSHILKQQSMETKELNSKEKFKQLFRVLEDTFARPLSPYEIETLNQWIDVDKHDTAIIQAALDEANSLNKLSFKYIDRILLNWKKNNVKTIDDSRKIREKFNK
Description: SEC; Superdex 200 HR 10/30, Buffer B (20 mM HEPES, 100 mM NaCl, pH 7.0), purified protein 2 mg/mL (methods; 4 mg/mL in the results for SaDnaD), calibrated with standard proteins; oligomer size from the estimated native mass.

For data set [6], the target named is Staphylococcus aureus DnaD (SaDnaD) (Staphylococcus aureus subsp. aureus ED98) (UniProt Q9EUT0). Described as above.
Data set [7] concerns the target T4, SaDnaD (Staphylococcus aureus subsp. aureus ED98, UniProt Q9EUT0 1-228).
T4 sequence: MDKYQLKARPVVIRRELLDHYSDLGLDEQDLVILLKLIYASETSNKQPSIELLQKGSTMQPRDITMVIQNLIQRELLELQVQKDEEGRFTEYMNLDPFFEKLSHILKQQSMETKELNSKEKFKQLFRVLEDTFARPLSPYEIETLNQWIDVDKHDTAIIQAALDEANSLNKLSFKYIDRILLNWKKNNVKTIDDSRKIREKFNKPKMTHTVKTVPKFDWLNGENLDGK
The data set is described as follows: EMSA; EMSA: 20 mM Tris-HCl pH 8.0, 100 mM NaCl, 25 C, 30 min, 1.7 nM DNA, gel at 4 C in TBE; fluorescence: 20 mM Tris-HCl pH 8.0, 200 or 500 mM NaCl, 0.1 uM tetramer. The following applies: protein: recombinant; tags: C-terminal His tag (pET21e); chain copies: 4; label: 5'-32P.

In data set [8] the target is T4, SaDnaD. The data set is described as follows: EMSA; two complexes summed; EMSA: 20 mM Tris-HCl pH 8.0, 100 mM NaCl, 25 C, 30 min, 1.7 nM DNA, gel at 4 C in TBE; fluorescence: 20 mM Tris-HCl pH 8.0, 200 or 500 mM NaCl, 0.1 uM tetramer. The following applies: protein: recombinant, tags: C-terminal His tag (pET21e), chain copies: 4. (Mobility shift assays separate free from complexed probe on a gel.)

“And” between values parts separate entries of the source, which are not always exact repeats. Equal entries are not always repeated.

“SaDnaD1-195 (from UniProt Q9EUT0 1-195) (domain or fragment)” registered a SaPriA ATPase activity with tag-free SaDnaD1-195 (10 μM), stimulation over SaPriA alone in data set [1] of 2 fold. Moreover, in the data set with SaDnaD1-195, the stoichiometry N (in general, the number of molecules, sites or subunits per partner or assembly) was 4. In addition, in [2], the Kd (as a rule, the concentration at which binding is half-saturated) came to 0.15 µM. The SaPriA ATPase activity with His-tagged SaDnaD1-195 (10 μM), stimulation over SaPriA alone in data set [3] was 2 fold. In addition, the Fold of Vmax/Km of SaPriA ATPase with tag-free SaDnaD1-195 (10 μM) against PriA alone in data set [4] was found to be 1.2 fold.

On to “SaDnaD1-200 (from UniProt Q9EUT0 1-200) (domain or fragment)”, for which the stoichiometry N with SaDnaD1-200 is 4. Further, the Kd in data set [5] was 0.026 µM.

As for “SaDnaD1-204 (from UniProt Q9EUT0 1-204) (domain or fragment)”, in the data set with SaDnaD1-204, the stoichiometry N is 4. In data set [5], this molecule displayed a Kd of 0.011 µM.

With “Staphylococcus aureus DnaD (SaDnaD) (from UniProt Q9EUT0 1-228) (natural protein)”, the SaPriA ATPase activity with tag-free SaDnaD (10 μM), stimulation over SaPriA alone in data set [1] is 11 fold and 12 fold. For the same molecule, the stoichiometry N in data set [6] was 4. Besides, the Kd in data set [5] was found to be 0.002 µM; in [2], 0.017 µM. Moreover, the SaPriA ATPase activity with His-tagged SaDnaD (10 μM), stimulation over SaPriA alone in [3] is 12 fold. The Fold of Vmax/Km of SaPriA ATPase with tag-free SaDnaD (10 μM) against PriA alone in [4] was 5.3 fold.

On to “tag-free SaDnaDY176A mutant protein (from UniProt Q9EUT0 1-228) (natural protein)”, for which the Fold of Vmax/Km of SaPriA ATPase with tag-free SaDnaDY176A (10 μM) against PriA alone in data set [4] came out at 5.1 fold.

B1: dT55 (ssDNA)
DNA: TTTTTTTTTTTTTTTTTTTTTTTTTTTTTTTTTTTTTTTTTTTTTTTTTTTTTTT
For B1, the “apparent K (half saturation)” value with SaDnaD [7] was determined as 1400 ± 100 nM.

On to TTTTTTTTTTTTTTTTTTTTTTTTT (ssDNA) [dT25], for which the “apparent K (half saturation)” value in the data set with SaDnaD [7] came to 4700 ± 800 nM.

B2: dT60 (ssDNA)
DNA: TTTTTTTTTTTTTTTTTTTTTTTTTTTTTTTTTTTTTTTTTTTTTTTTTTTTTTTTTTTT
B2: in the data set with SaDnaD [8] (label: 5'-32P), the “apparent K (half saturation)” value stood at 1500 ± 100 nM.

B3: dT65 (ssDNA)
DNA: TTTTTTTTTTTTTTTTTTTTTTTTTTTTTTTTTTTTTTTTTTTTTTTTTTTTTTTTTTTTTTTTT
For B3, in the data set with SaDnaD [8] (label: 5'-32P (EMSA), unlabeled in fluorescence titration), the “apparent K (half saturation)” value worked out at 500 ± 100 nM.

As for TTTTTTTTTTTTTTTTTTTTTTTTTTTTTTTTTTT (ssDNA) [dT35], in the data set with SaDnaD [7], the “apparent K (half saturation)” value was found to be 2200 ± 300 nM.

For TTTTTTTTTTTTTTTTTTTTTTTTTTTTTTTTTTTTTTTTTTTTT (ssDNA) [dT45], in the data set with SaDnaD [7], the “apparent K (half saturation)” value came out at 2000 ± 200 nM.
